In the supplement of paper PMC9170038:

Test system: MS2 coat protein
Test: apparent KD of MS2 coat protein; higher = weaker reporter binding
Conditions: Eterna round: R107
Outline: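 The designed RNA switches were transcribed on-chip from Illumina sequencing clusters. In 100 mM Tris-HCl pH 7.5, 80 mM KCl and 4 mM MgCl2, without or with constant ligand, they were titrated with SNAP-549-labelled MS2 coat protein from 0.7 or 1.5 nM to 3 µM in twofold steps. Apparent KD is the per-design median of normalised cluster binding-curve fits.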

[1] = input ligand: theophylline 20 uM
[2] = input ligand: theophylline 2 mM
[3] = input ligand: tryptophan 2.4 mM

Sequence	apparent KD of MS2 coat protein (input ligand: arginine 13.2 mM)	apparent KD of MS2 coat protein (input ligand: none)	apparent KD of MS2 coat protein [1]	apparent KD of MS2 coat protein [2]	apparent KD of MS2 coat protein [3]
CCCAAAUAGAUCUUUGGAAUUUUACUCGAAGGAGCGUCAUAGUAGGCAGGUAGGUCGCGAGACAUGAGGAUCACCCAUGUAGAGA [kinmullin]	18.7 nM	53.7 nM	35.5 nM	45.8 nM	32.4 nM
CCCUCGUCAACGGCCGCCACUGUGAUUCACUAAGAUAAUAUUGCACAUGAGGAUCACCCAUGUCUCAGGACCGGGUUGGUGUGUC [theeternabot_sameState_MS2_Trp_B_38]	82 nM	–	128 nM	131 nM	–
CCGAACAUGAGGAUCACCCAUGUAUCCGAGCGAGGACCGGUACGGCCGCCACUCGAACUGCACCGGAAAAGGGAAACACCGAUCC [theeternabot_sameState_MS2_Trp_A_9]	33.4 nM	–	95.7 nM	69.3 nM	–
CCGACGAUGACUAUGGGUCAGGAGUGCGCACGAGGACCGGUACGGCCGCCACUCGAGGAGUGGGACAUGAGGAUCACCCAUGUGG [X-TryptA-MS2@65]	31.5 nM	30 nM	73.7 nM	52.8 nM	33.6 nM
CCGGAGACCGUGUCAGCGGAAGCAAGAACACGAGGACCGGUACGGCCGCCACUCGAAAGAAGACAUGAGGAUCACCCAUGUCCAU [theeternabot_exclusion_MS2_Trp_A_43]	10.5 nM	–	15.1 nM	13.8 nM	–
CCGUCACAUGAGGAUCACCCAUGUGGUGAUACCAGCAGUCGACCCUGCCCUUGGCAGCACAUUAUCAUAAAAGCAAUCAGCAACG [theeternabot_sameState_MS2_Theo_A_41]	57 nM	–	269 nM	–	135 nM
CCGUUUUAUGGCGACAUAGGGCGGACUGAAGGAGCGGGAUAAAACCCAGGUAGGUCGCAGAGAUCCACAUGAGGAUCACCCAUGU [!0.X]	35.9 nM	38 nM	54.5 nM	32.8 nM	35.9 nM
CCUAUGCAGUCGGCCGCCACUGAACAUGAGGAUCACCCAUGUAUAUAAAGAUCCUGAUAUAAUAACAGGACCGGGACUGUAUAGG [Ex Tryptophan B 10]	39.2 nM	–	73.4 nM	58.1 nM	–
CCUCAUGUGACGGCCGCCACUGAAGUGAUCGAAACAUGAGGAUCACCCAUGUUACGAUCAGAGAACAGGACCGGGUCAACAUGGG [Try B SS s1]	7.46 nM	9.32 nM	13.6 nM	13.1 nM	9.85 nM
CCUGCGUUUCUUUUCUUUCGCAGGAAUGAUACCAGUAGGGAAACCUACCCUUGGCAGCAUGGGACAUGAGGAUCACCCAUGUUAU [SSThA NP+V+V2 #3]	167 nM	–	243 nM	–	300 nM
CCUGCUACGGGAAACCGUAGCAGGAAUGAUACCAGUAGGAAAGACUACCCUUGGCAGCAUGGGUAACAUGAGGAUCACCCAUGUU [SSThA NP+V+V2 #6 Same Structure]	70.9 nM	132 nM	124 nM	87.9 nM	66 nM
CCUGGAUCAGAUCUUAAAGGCGGUUCUGAUACCAGUCUUUUCCGAGACCCUUGGCAGCAGAACACAUGAGGAUCACCCAUGUAAA [theeternabot_exclusion_MS2_Theo_A_11]	29.1 nM	–	59 nM	–	59.7 nM
CCUUAAUAUGGAAGGAGCGCGCUAACAUGAGGAUCACCCAUGUAAAGGGUUUUAGGCUUAGCGCAGGUAGGUCGCCGUAAGAACC [#09 Exclusion - Arginine B]	288 nM	249 nM	266 nM	327 nM	252 nM
CGAACAAAACUAAAUAAACAACUGGGUGAUACCAGUACAUGUGCGUACCCUUGGCAGCAUCCGGCCACAUGAGGAUCACCCAUGU [Ridiansoer]	35.4 nM	–	98.8 nM	–	40.9 nM
CGAAUACUGAGUGAUACCAGUGAAAGAUAACUGUAUACACAUGAGGAUCACCCAUGUACACACCCUUGGCAGCACACUAGAUCGA [Same State Theophylline B GF 2]	25.8 nM	–	40 nM	–	29.9 nM
CGAUAUAUAGCGGCCGCCACUUACUCAUGAGGUAACAACAUGAGGAUCACCCAUGUUUGAGGAUCAAGGACCGGGCUAUGUAUCG [AstrosSSTryB#14]	24.9 nM	–	32 nM	29.4 nM	–
CGCACAUGAGGAUCACCCAUGUGAGGGCAUCGAGGACCGGUACGGCCGCCACUCGCAGGACAUGAGGAUCACCCAUGUGCCGCCG [SSTA DOUBLE!!! :-D #5]	22.1 nM	34.3 nM	52.9 nM	47.2 nM	24.4 nM
CGCACAUGAGGAUCACCCAUGUGAGGGCGACGAGGACCGGUACGGCCGCCACUCGCAAAACAUGAGGAUCACCCAUGUGCCGCCG [SSTA DOUBLE!!! :-D #3]	19.7 nM	19.3 nM	42.7 nM	29.1 nM	20.3 nM
CGCACAUGAGGAUCACCCAUGUGAGGGUACCGAGGACCGGUACGGCCGCCACUCGCAGGACAUGAGGAUCACCCAUGUGCCGCCG [SSTA DOUBLE!!! :-D #6]	24.3 nM	38.3 nM	41.9 nM	44.5 nM	31 nM

Sequence	apparent KD of MS2 coat protein (input ligand: arginine 13.2 mM)	apparent KD of MS2 coat protein (input ligand: none)	apparent KD of MS2 coat protein [1]	apparent KD of MS2 coat protein [2]	apparent KD of MS2 coat protein [3]
CGCUACGUAACUGAUACCAGUGUACUGACAUGAGGAUCACCCAUGUUGGGUUUUGUUGUACACCCUUGGCAGCAGAAUCGUAGCG [AstrosExyTheB#13]	58.7 nM	–	79.2 nM	–	61.3 nM
CGGAGUAUGACGGCCGCCACUUGCCGGGCGCAGCUGGCUGCUUGACAUGAGGAUCACCCAUGUCCAAGGACCGGGUCAUUCCUCG [theeternabot_sameState_MS2_Trp_B_37]	59.4 nM	–	145 nM	189 nM	–
CGGCCCUCACAUGAGGAUCACCCAUGUGAUACCAGCCUGGAAACAGGCCCUUGGCAGCACAGGUCAUCAAAAGAUGACCAAGCCG [TheoAX 21 #SwitchBubble]	15.1 nM	–	20.5 nM	–	11.8 nM
CGGGUUCGGGCGGCCGCCACUAUGAUUAGGUGUGGGUGUGUUGUGUUACAUGAGGAUCACCCAUGUAGGACCGGGUUUGGGCUUG [Sturgeon]	33.4 nM	52.6 nM	84.5 nM	28.3 nM	57.4 nM
CGGUAGGUAGGUCGAUAUCUACCCGUAGAAGGAGCGUAAGAAAAUACAGGUAGGUCGCUACGGUACAUGAGCAUCAGCCAUGUCC [SSArg A #13 Alt-Ms2]	10.5 nM	11.7 nM	15.2 nM	11.7 nM	13.1 nM
CGGUAUGGGACGGCCGCCACUAUUAUGUAACAAAAUAAACAUGAGGAUCACCCAUGUACAUGGGAUAGGACCGGGUCCUAUAGCG [#23 Same State - Tryptophan B]	19.8 nM	55.7 nM	70.9 nM	133 nM	17.7 nM
CGUAUUGGAAACAGUACGAGUGAUCCGGUCCGAGGACCGGUACGGCCGCCACUCGAAAUAAAUAAACAUGAGGAUCACCCAUGUA [Ex Tryptophan A 9]	14.1 nM	–	18.2 nM	21.9 nM	–
CUAAAUAUAACGGCCGCCACUUACUCAUGAGGUAACAACAUGAGGAUCACCCAUGUUUGAGGAUCAAGGACCGGGUUAUAUUUAG [AstrosSSTry#22]	26.5 nM	–	38.1 nM	30.2 nM	–
CUAAGAGUUACGGCCGCCACUAGUUGGGAUCCGCCCGUAAAAUCACAUGAGGAUCACCCAUGUCCUAGGACCGGGUAAUCGCAUU [theeternabot_sameState_MS2_Trp_B_31]	110 nM	–	616 nM	499 nM	–
CUACAUUUGUAGAAACCGGUCAACAAUAAUCGAGGACCGGUACGGCCGCCACUCGAUGUGAAAUCACAUGAGGAUCACCCAUGUA [Tryptophan A 18]	18.9 nM	–	23.8 nM	19.8 nM	–
CUACAUUUGUAGAAACCGGUCAACAAUAAUCGAGGACCGGUACGGCCGCCACUCGAUGUGUUAUACACAUGAGGAUCACCCAUGU [Tryptophan A 14]	21.7 nM	–	24.7 nM	22.9 nM	–
CUACAUUUGUAGAAACCGGUCAACAUUAUUCGAGGACCGGUACGGCCGCCACUCGUAUAUUUUUAUACAUGAGGAUCACCCAUGU [Tryptophan A 7]	14.4 nM	–	14.4 nM	13 nM	–
CUACAUUUGUAGAAACCGGUCACCGUUACUCGAGGACCGGUACGGCCGCCACUCGUGUCACGUGAUACAUGAGGAUCACCCAUGU [Tryptophan A 11]	28.9 nM	–	45.7 nM	54.8 nM	–
CUAUAAGUACCGGUCCUCAGAUCCUCAUGACGAGGACCGGUACGGCCGCCACUCGAAACAUGAGGAUCACCCAUGUAAUAAUAUC [Brourdmod13]	18.6 nM	–	43.4 nM	44.1 nM	–
CUAUAAGUAGCGGCCGCCACUUACUCAUGAGGUAACAACAUGAGGAUCACCCAUGUUUGAGGAUCAAGGACCGGGCUAUUUAUAG [AstrosSSTryB#9]	24.7 nM	28.7 nM	32.6 nM	31.5 nM	17.6 nM
CUAUAGAUAAGAAGGAGCGACAUGAGGAUCACCCAUGUCUACCACGUCGAAAGACGCUCAUGUCAGGUAGGUCGCUUAUUUAUAG [Astros-Eli-mod7]	71.1 nM	117 nM	99.2 nM	129 nM	84.1 nM
CUAUAUAGAAAACUAUAUAGAGUGGGUGAACGAGGACCGGUACGGCCGCCACUCGGACAUGAGGAUCACCCAUGUCCAUGUGAAA [AstrosExyTryA#25]	13.1 nM	14.8 nM	13 nM	25 nM	29.4 nM
CUAUAUGGAAACAUAUAGACGCAAAAGCGACGAGGACCGGUACGGCCGCCACUCGAAGAGUGGUGGACAUGAGGAUCACCCAUGU [Design 3 MOD]	38.3 nM	54.6 nM	73.1 nM	58.9 nM	58.5 nM
CUAUGCAGGUCGGCCGCCACUACACACAUGAGGAUCACCCAUGUAGUUACUGGGUGAAGUGGCAGUAGGACCGGGACCUGCACAC [Brourdmod18]	150 nM	436 nM	458 nM	619 nM	431 nM
